Laboratory results reported in publication PMC5027513 (Nucleic Acids Research, 2016).

Experiments:
[1] = biological target: T1, TnpA (IS608 transposase, Y1 HuH) (UniProt Q933Z0 1-155); assay: EMSA
T1 sequence: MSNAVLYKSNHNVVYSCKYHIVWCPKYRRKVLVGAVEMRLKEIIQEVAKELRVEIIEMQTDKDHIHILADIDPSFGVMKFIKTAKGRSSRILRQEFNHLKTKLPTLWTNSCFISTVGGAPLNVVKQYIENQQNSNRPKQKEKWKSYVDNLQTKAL

[2] = biological target: T1, TnpA (IS608 transposase, Y1 HuH); assay: EMSA; remark: listed apart in the source
[3] = biological target: T1, TnpA (IS608 transposase, Y1 HuH); assay: EMSA; remark: listed apart in the source
[4] = biological target: T1, TnpA (IS608 transposase, Y1 HuH); assay: competition
two-hybrid = biological target: the molecule itself; assay: two-hybrid
Ssb = Ssb (UniProt P0AGE0 1-178); assay: EMSA
Ssb, sequence (P0AGE0 whole entry): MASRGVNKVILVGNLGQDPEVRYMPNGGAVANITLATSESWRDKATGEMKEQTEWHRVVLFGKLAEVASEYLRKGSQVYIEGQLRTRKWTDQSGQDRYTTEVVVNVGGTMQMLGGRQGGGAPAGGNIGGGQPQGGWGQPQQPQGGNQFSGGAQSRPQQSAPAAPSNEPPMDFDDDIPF

B1: ss60 (LE80 with 60-nt ss tail, S46) (structured_DNA)
DNA: CGCTAGTGCAAAAATTACCAAAACTAACGCCTTAAAGCCCCTAGCTTTTAGCTATGGGGATACAAGGCGAAACGCCTTCTGATGTCCTGTCGCCTCTGCCCGAAGACTCTAGATCGATTCAAGCTTCGCCTCTCAGCT
B1: binds [1].

B2: ds60 (S46 + S44) (mixed)
DNA 1: CGCTAGTGCAAAAATTACCAAAACTAACGCCTTAAAGCCCCTAGCTTTTAGCTATGGGGATACAAGGCGAAACGCCTTCTGATGTCCTGTCGCCTCTGCCCGAAGACTCTAGATCGATTCAAGCTTCGCCTCTCAGCT
DNA 2: AGCTGAGAGGCGAAGCTTGAATCGATCTAGAGTCTTCGGGCAGAGGCGACAGGACATCAG
B2: binds [2].

B3: fork / flap (L73 + L76l + L77) (mixed)
DNA 1: GTGATGACCTGTCGCCTCTGCCCGAAGACTCTAGATCGATACAAGCTACGCCTCTCAGCTCCGATGATGACGCTC
DNA 2: GAGCGTCATCATCGGAGCTGAGAGGCGTAGCTTGTATCTAGGAAGCCGCTGTAGCTCTCGCAATCAGCAGCCTTGTGCCG
DNA 3: CGGCACAAGGCTGCTGATTGCGAGAGCTACAGCGGCTTCCTA
B3: binds [3].

B4: LE100 (structured_DNA)
DNA: CGGGCTGCAGGAATTCGATTTGCGCTAGTGCAAAAATTACCAAAACTAACGCCTTAAAGCCCCTAGCTTTTAGCTATGGGGATACAAGGCGAAACGCCTT
B4: binds [4].

B5: TnpAIS608, transposase of IS608, BACTH hybrid (T25-TnpAIS608 or TnpAIS608-T18) (enzyme, Helicobacter pylori (IS608), UniProt Q933Z0 1-155, looked up)
chain: MSNAVLYKSNHNVVYSCKYHIVWCPKYRRKVLVGAVEMRLKEIIQEVAKELRVEIIEMQTDKDHIHILADIDPSFGVMKFIKTAKGRSSRILRQEFNHLKTKLPTLWTNSCFISTVGGAPLNVVKQYIENQQNSNRPKQKEKWKSYVDNLQTKAL
B5 was tested, and the “β-galactosidase activity, fold above negative control” value (two-hybrid) was 5 fold.

B6: ss target 125 nt (S56) (ssDNA)
DNA: GTGATGTCCTGTCGCCTCTGCCCGAAGACTCTATTACGATTCAAGCTTCGCCTCTCAGCTCCGATGATGTCGCTCATGCCTGCAGCAATGGCAACAACGAACGGCAAACTATTAACTGGCGAACT
B6: binds (Ssb).
